{
  "source": "paper PMC5715081",
  "about": "“Purification and functional comparison of nine human Aquaporins produced in Saccharomyces cerevisiae for the purpose of biophysical characterization” (Scientific Reports, 2017)",
  "data": [
    {"molecular_target": "the molecule itself", "test": "SDS-PAGE (SDS-resistant oligomers); peak fractions of Ni-affinity purified, detergent solubilised AQP-TEV-GFP-His10 fusions separated by SDS-PAGE; in-gel fluorescence and Coomassie staining", "values": [
      {"protein": "human AQP2-TEV-GFP-His10 fusion (natural protein, UniProt P41181 1-271, looked up, Aquaporin 2, human, cDNA codon optimized for S. cerevisiae; primers run from the start codon to the last codon; also called AQP2-GFP; APQ2-GFP; not shown: TEV cleavage site, C-terminal, kept; yeGFP, C-terminal, kept; His10, C-terminal, kept) MWELRSIAFSRAVFAEFLATLLFVFFGLGSALNWPQALPSVLQIAMAFGLGIGTLVQALGHISGAHINPAVTVACLVGCHVSVLRAAFYVAAQLLGAVAGAALLHEITPADIRGDLAVNALSNSTTAGQAVTVELFLTLQLVLCIFASTDERRGENPGTPALSIGFSVALGHLLGIHYTGCSMNPARSLAPAVVTGKFDDHWVFWIGPLVGAILGSLLYNYVLFPPAKSLSERLAVLKGLEPDTDWEEREVRRRQSVELHSPQSLPRGTKA", "binding result": "binds"},
      {"protein": "human AQP6-TEV-GFP-His10 fusion (natural protein, UniProt Q13520 1-282, looked up, Aquaporin 6, human, cDNA codon optimized for S. cerevisiae; primers run from the start codon to the last codon; also called AQP6-GFP; Aquaporin 6; not shown: TEV cleavage site, C-terminal, kept; yeGFP, C-terminal, kept; His10, C-terminal, kept) MDAVEPGGRGWASMLACRLWKAISRALFAEFLATGLYVFFGVGSVMRWPTALPSVLQIAITFNLVTAMAVQVTWKASGAHANPAVTLAFLVGSHISLPRAVAYVAAQLVGATVGAALLYGVMPGDIRETLGINVVRNSVSTGQAVAVELLLTLQLVLCVFASTDSRQTSGSPATMIGISVALGHLIGIHFTGCSMNPARSFGPAIIIGKFTVHWVFWVGPLMGALLASLIYNFVLFPDTKTLAQRLAILTGTVEVGTGAGAGAEPLKKESQPGSGAVEMESV", "binding result": "binds"},
      {"protein": "human AQP9-TEV-GFP-His10 fusion (natural protein, UniProt O43315 1-295, looked up, Aquaporin 9, human, cDNA codon optimized for S. cerevisiae; primers run from the start codon to the last codon; also called AQP9-GFP; Aquaporin 9; not shown: TEV cleavage site, C-terminal, kept; yeGFP, C-terminal, kept; His10, C-terminal, kept) MQPEGAEKGKSFKQRLVLKSSLAKETLSEFLGTFILIVLGCGCVAQAILSRGRFGGVITINVGFSMAVAMAIYVAGGVSGGHINPAVSLAMCLFGRMKWFKLPFYVGAQFLGAFVGAATVFGIYYDGLMSFAGGKLLIVGENATAHIFATYPAPYLSLANAFADQVVATMILLIIVFAIFDSRNLGAPRGLEPIAIGLLIIVIASSLGLNSGCAMNPARDLSPRLFTALAGWGFEVFRAGNNFWWIPVVGPLVGAVIGGLIYVLVIEIHHPEPDSVFKTEQSEDKPEKYELSVIM", "binding result": "binds"}
    ]}
  ]
}
